Source: US8586570B2, “Sox-based kinase sensor” (Massachusetts Institute of Technology, priority 2006, dated 2013)

Legend:
[1] = biological target: PKCβI (Homo sapiens, UniProt P05771); experiment: Cross-reactivity of PKCα-S10 with PKC isozymes; assay type: biochemical; conditions: peptide 1 μM, isozyme 2 ng
Procedure: (§1) With the kinetic parameters at hand it is possible to test the cross-reactivity of PKCα-S10 with PKC isozymes. In 12 separate reactions PKCα-S10 (1 μM) is subjected to phosphorylation with PKCα, PKCβI, PKCβII, PKCγ, PKCδ, PKCε, PKCζ, PKCη, PKCθ, PKCι, PKCμ and PKCν (2 ng).

[2] = biological target: PKCγ (Homo sapiens, UniProt P05129); experiment: Cross-reactivity of PKCα-S10 with PKC isozymes; assay type: biochemical; conditions: peptide 1 μM, isozyme 2 ng
Procedure: as §1

[3] = biological target: T1, PKCι (Homo sapiens, UniProt P41743); experiment: Cross-reactivity of PKCα-S10 with PKC isozymes; assay type: biochemical; conditions: peptide 1 μM, isozyme 2 ng
T1 sequence (P41743 1-596): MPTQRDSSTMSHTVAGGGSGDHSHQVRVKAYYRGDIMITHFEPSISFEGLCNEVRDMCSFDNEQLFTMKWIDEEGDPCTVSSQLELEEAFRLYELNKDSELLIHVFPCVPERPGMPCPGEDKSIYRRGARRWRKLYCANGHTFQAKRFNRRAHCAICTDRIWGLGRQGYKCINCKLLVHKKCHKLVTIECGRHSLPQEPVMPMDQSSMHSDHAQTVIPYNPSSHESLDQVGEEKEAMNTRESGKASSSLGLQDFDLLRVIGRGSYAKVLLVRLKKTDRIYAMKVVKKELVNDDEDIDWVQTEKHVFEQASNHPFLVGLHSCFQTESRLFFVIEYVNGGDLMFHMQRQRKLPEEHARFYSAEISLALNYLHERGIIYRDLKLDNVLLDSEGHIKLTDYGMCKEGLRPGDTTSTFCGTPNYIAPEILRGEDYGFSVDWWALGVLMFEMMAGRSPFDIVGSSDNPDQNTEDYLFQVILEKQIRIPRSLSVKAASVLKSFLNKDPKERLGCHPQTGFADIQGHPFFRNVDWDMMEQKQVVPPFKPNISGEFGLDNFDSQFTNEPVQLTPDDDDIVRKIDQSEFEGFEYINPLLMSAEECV
Procedure: as §1

[4] = biological target: PKCδ (Homo sapiens, UniProt Q05655); experiment: Cross-reactivity of PKCα-S10 with PKC isozymes; assay type: biochemical; conditions: peptide 1 μM, isozyme 2 ng
Procedure: as §1

[5] = Fluorescence increase, phosphopeptide vs unphosphorylated peptide at 485 nm; assay type: physicochemical; conditions: phosphopeptide / unphosphorylated peptide intensity at 485 nm, generally 10 mM Mg2+
Procedure: (§2) Fluorescence experiments were performed on a Fluoromax 3 from Jobin Yvon. 5 nm emission and excitation slit widths were used. For all experiments, an excitation wavelength of 360 nm was used. Enzyme assays were performed by monitoring emission at 485 nm.
After peptide characterization, emission spectra were obtained for unphosphorylated and phosphorylated peptides under appropriate conditions. The spectra were generally acquired in the presence of 10 mM Mg^2+(although lower Mg^2+concentrations can and have been used as well) and either 0, 0.1 or 1 mM ATP in a preselected buffer (usually 20 mM HEPES, pH 7.4). Relying on the emission spectra the fold fluorescence differences were measured by dividing the fluorescence intensity of the phosphopeptide by the fluorescence intensity of its unphosphorylated counterpart at 485 nm. FIG. 2 depicts the fluorescence spectra of the phosphorylated and unphosphorylated peptides in the appropriate assay mixture: (A) emissions scans of PKCβI-1 (10 μM), 10 mM Mg(II), 3×; (B) emissions scans of PKCβI-1 (10 μM), 10 mM Mg(II), 0 mM ATP, 3×.; (C) fluorescence difference for PKCβI-1 (10 μM), 10 mM Mg(II), 3×; (D) fluorescence increase for PKCβI-1 (10 μM) at 10 mM Mg (II).

[6] = biological target: PKCα (Homo sapiens, UniProt P17252); experiment: Kinetic parameters of the peptides with PKCα (continuous fluorescence assay); assay type: biochemical
Description: To solve for enzyme kinetic parameters for this reaction, determination of the initial rate of product formation from the increase in fluorescence intensity is necessary. With this sensor, a correction for the decrease in fluorescence intensity due to the starting material being consumed is needed to determine the rate of product formation from the initial slope. The fluorescence intensity at any given point can be determined from the following equation: I(t)=fSs(t)+fPP(t) (1) where I(t) is the fluorescence intensity, S(t) is the amount of substrate in μM, P(t) is the amount of product in μM, fS is the fluorescence intensity per μM of substrate, and fP is fluorescence intensity per μM of product. The amount of substrate and product at any given point are related by: S(t)+P(t)=S0 (2) where S0 is the initial amount of substrate. Substitution of (2) into (1) followed by rearrangement, yields:
[formula] The initial slope of the reaction, dI(t)/dt, was measured within the first 5% of substrate turnover. The constants fP and fS were calculated from the slope of a line of fluorescence intensity versus concentration of P and S, respectively. A linear fit of a Hanes plot ([S]/V vs. […]) was used to find Km and Vmax.
For in vitro applications, the concentration of kinase can range from about 0.5 nM to about 1 μM, typically not more than about 500 nM, and preferably not more than about 250 nM. The concentrations of sensor can vary, but usually ranges between about 0.01 μM to 0.1 mM. Adenosine 5′-triphosphate (ATP) is the preferred source of phosphate, in stock solutions of about 10-100 mM. Because most kinases have Km values for ATP in the range of about 10-150 μM, saturating concentrations of ATP are used to arrive at values of Km and Vmax for the substrates. For in vivo applications, when the sensor is internalized into a cell, sufficient kinases, Mg^2+ and phosphate sources exist in the cytosol. For in vivo sensing, a cellular internalization sequence can be included in the sensor design. Suitable cellular internalization sequences include Penetratins, HIV-Tat domains and poly-arginine sequences (Lindgren, M. et al. Trends Pharmacol. Sci. 2000, 21, 99-103; Wadia, J. S. et al. Curr Opin. Biotech. 2002, 13, 52-56; Carrigan, C. N. Analyt. Biochem. 2005, 341, 290-298).
For applications in which the kinase is dependent on cofactors, a source of cofactor is also included in the sample. For example, for PKC, sources of Ca^2+, phospholipid and diacylglycerol are needed.
as §2

PKCβI, sequence (P05771 whole entry): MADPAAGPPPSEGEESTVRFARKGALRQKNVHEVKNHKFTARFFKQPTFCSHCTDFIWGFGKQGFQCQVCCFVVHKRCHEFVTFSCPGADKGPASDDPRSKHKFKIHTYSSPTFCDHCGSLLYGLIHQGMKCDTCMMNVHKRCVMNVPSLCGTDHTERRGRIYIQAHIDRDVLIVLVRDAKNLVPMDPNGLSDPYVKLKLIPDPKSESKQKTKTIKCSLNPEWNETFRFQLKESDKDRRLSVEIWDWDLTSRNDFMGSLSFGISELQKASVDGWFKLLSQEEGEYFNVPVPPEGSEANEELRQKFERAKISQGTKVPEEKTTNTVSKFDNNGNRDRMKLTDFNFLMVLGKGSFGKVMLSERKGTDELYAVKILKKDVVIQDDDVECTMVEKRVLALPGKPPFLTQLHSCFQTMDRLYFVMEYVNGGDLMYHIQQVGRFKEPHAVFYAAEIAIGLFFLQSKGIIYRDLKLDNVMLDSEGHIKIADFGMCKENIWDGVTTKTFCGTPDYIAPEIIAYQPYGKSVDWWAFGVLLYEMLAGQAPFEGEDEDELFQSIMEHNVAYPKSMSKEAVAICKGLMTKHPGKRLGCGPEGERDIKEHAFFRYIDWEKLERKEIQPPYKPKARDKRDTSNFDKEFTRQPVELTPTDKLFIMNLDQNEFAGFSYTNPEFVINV
PKCδ, sequence (Q05655 whole entry): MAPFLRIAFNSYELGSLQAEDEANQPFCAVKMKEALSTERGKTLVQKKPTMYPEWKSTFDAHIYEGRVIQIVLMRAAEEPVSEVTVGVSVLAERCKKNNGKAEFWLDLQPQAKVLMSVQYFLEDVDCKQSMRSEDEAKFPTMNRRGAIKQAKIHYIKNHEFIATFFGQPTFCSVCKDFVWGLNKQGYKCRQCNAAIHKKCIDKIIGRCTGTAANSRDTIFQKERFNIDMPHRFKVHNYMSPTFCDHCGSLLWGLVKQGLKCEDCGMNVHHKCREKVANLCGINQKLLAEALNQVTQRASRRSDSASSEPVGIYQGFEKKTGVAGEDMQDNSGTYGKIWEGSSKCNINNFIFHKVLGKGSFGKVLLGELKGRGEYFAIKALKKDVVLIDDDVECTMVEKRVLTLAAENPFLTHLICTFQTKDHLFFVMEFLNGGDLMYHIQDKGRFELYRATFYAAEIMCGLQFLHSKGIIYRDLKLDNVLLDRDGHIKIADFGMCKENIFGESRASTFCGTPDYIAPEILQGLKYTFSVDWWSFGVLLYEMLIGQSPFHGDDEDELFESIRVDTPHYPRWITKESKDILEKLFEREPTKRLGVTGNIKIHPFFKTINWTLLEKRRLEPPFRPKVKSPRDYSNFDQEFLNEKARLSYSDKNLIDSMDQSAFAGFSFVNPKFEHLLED

activity of isozyme on peptide compared with PKCα [1]: slightly more active than PKCα | activity of isozyme on peptide compared with PKCα [2]: comparable activities to that of PKCα | activity of isozyme on peptide [3]: very little activity | activity of isozyme on peptide [4]: no activity | selectivity for PKCα ([6]; as determined by kinetic parameters, compared with PKCα-S1): much more selective for PKCα | Km ([6]; with PKCα): 0.12 ± 0.018 µM | Vmax ([6]; with PKCα): 2.2 ± 0.25 µmol/min/mg
Substance: Ac-RRR-C(Sox)-ASFRRKA-CONH2 [PKCα-S10(P10), Sox chemosensor with extended recognition domain for PKCα]
Fluorescence Increase [5]: 3.9 x
